± gives the standard deviation of the averaged measurements.
Tested on: Saccharomyces cerevisiae
Test: protein stability index of tFT-peptide fusion (C-terminal peptide) (PSI (0-1 scale)); higher = more stable (slower turnover)
Conditions: temperature: 30 C
Procedure: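 MPS profiling in S. cerevisiae of the yeast C-terminome library: the last 12 aa of each annotated ORF are fused to the C-terminus of a sfGFP-mCherry timer, after a GGGS linker. Cells are FACS-sorted into 8 mCherry/sfGFP bins and deep-sequenced. PSI runs from 0 (unstable) to 1 (stable); wild type and das1Δ backgrounds, two technical replicates each.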

[1] = genetic background: das1 deletion

| Sequence | protein stability index [1] | protein stability index (genetic background: wild type) |
| --- | --- | --- |
| AQLVSLVRNQKH [YLR198C C-terminal 12 aa] | 0.717 ± 0.022 | 0.6998 ± 0.005 |
| HHLTYLPSVPSL [MMO1 C-terminal 12 aa] | 0.715 ± 0.025 | 0.71 ± 0.053 |
| AVNGSDGQHCQI [AVT2 C-terminal 12 aa] | 0.687 ± 0.023 | 0.6543 ± 0.0021 |
| NSIVKQFKEIFK [AIM41 C-terminal 12 aa] | 0.709 ± 0.028 | 0.67 ± 0.0096 |
| AIMAVACNVIFS [AGA1 C-terminal 12 aa] | 0.292 ± 0.024 | 0.315 ± 0.005 |
| RESINEAKLRHT [BDH2 C-terminal 12 aa] | 0.676 ± 0.02 | 0.63 ± 0.011 |
| SVHPLIISYSQL [TRM732 C-terminal 12 aa] | 0.716 ± 0.05 | 0.637 ± 0.024 |
| NSSSNESIQVVV [SFK1 C-terminal 12 aa] | 0.706 ± 0.043 | 0.696 ± 0.037 |
| NSFDGLLVYLSN [CBF2 C-terminal 12 aa] | 0.6572 ± 0.0033 | 0.6615 ± 0.0065 |
| KLLGIFPNLSNF [YLL054C C-terminal 12 aa] | 0.70477 ± 0.00046 | 0.358 ± 0.0064 |
| GGKIFSLKLTLI [YPR108W-A C-terminal 12 aa] | 0.673 ± 0.011 | 0.384 ± 0.023 |
| NIKALNQSKSHM [SPO77 C-terminal 12 aa] | 0.684 ± 0.022 | 0.6701 ± 0.003 |
| VSGKKFQNVRVL [YPL247C C-terminal 12 aa] | 0.705 ± 0.01 | 0.676 ± 0.04 |
| NLKNGVTLESPE [UBP12 C-terminal 12 aa] | 0.716 ± 0.01 | 0.6889 ± 0.0028 |
| LKQTVESLIKEL [VPS51 C-terminal 12 aa] | 0.66 ± 0.0088 | 0.711 ± 0.072 |
| NVGVIRPLLDLQ [YGR069W C-terminal 12 aa] | 0.743 ± 0.026 | 0.729 ± 0.015 |
| NWVRYSSIYYQL [YDR194W-A C-terminal 12 aa] | 0.695 ± 0.013 | 0.14 ± 0.011 |
| TSSQKIYHTSNK [IPK1 C-terminal 12 aa] | 0.686 ± 0.05 | 0.672 ± 0.049 |
| VSLDNLPGVEKK [SUA7 C-terminal 12 aa] | 0.682 ± 0.022 | 0.683 ± 0.014 |
| EVTSLYTNASNA [DPC29 C-terminal 12 aa] | 0.715 ± 0.011 | 0.703 ± 0.049 |
| FFMSDMNLSKEG [ATG13 C-terminal 12 aa] | 0.752 ± 0.016 | 0.654 ± 0.048 |

| Sequence | protein stability index [1] | protein stability index (genetic background: wild type) |
| --- | --- | --- |
| TNQPVNENNDLK [SNF3 C-terminal 12 aa] | 0.667 ± 0.013 | 0.629 ± 0.0078 |
| LARGGVASFTVK [RNH70 C-terminal 12 aa] | 0.703 ± 0.0078 | 0.652 ± 0.0088 |
| ITNATFREIDDA [SEC12 C-terminal 12 aa] | 0.692 ± 0.0098 | 0.671 ± 0.03 |
| NNIKWYLHWKFI [VPR1 C-terminal 12 aa] | 0.684 ± 0.033 | 0.168 ± 0.019 |
| EKLKLLNSQQKD [PET191 C-terminal 12 aa] | 0.682 ± 0.014 | 0.722 ± 0.029 |
| QLHLVLTLRGGN [RUB1 C-terminal 12 aa] | 0.683 ± 0.011 | 0.74 ± 0.053 |
| TMSLLKRNPRNH [TRM44 C-terminal 12 aa] | 0.704 ± 0.02 | 0.683 ± 0.032 |
| ILERRLNEDHDC [KXD1 C-terminal 12 aa] | 0.696 ± 0.025 | 0.6885 ± 0.0056 |
| DNNTVTANPTAR [YJR012C C-terminal 12 aa] | 0.7033 ± 0.0028 | 0.6523 ± 0.003 |
| SPEQLKVSLKWH [SKM1 C-terminal 12 aa] | 0.718 ± 0.01 | 0.699 ± 0.022 |
| EKAKKSLSKMFS [CPR6 C-terminal 12 aa] | 0.688 ± 0.018 | 0.6927 ± 0.0033 |
| STKTVPLNFLFL [YDL050C C-terminal 12 aa] | 0.724 ± 0.01 | 0.677 ± 0.032 |
| LKLKRDLLRLKR [CIP1 C-terminal 12 aa] | 0.682 ± 0.019 | 0.651 ± 0.021 |
| FIEALAKSVNEL [UGA1 C-terminal 12 aa] | 0.7371 ± 0.0042 | 0.689 ± 0.054 |
| IRDAKFCDKHED [BOR1 C-terminal 12 aa] | 0.6971 ± 0.0014 | 0.671 ± 0.035 |
| SVENIFMIWFFY [YJL022W C-terminal 12 aa] | 0.5089 ± 0.0034 | 0.494 ± 0.011 |
| LTMLPPMAPLLS [YMR158W-B C-terminal 12 aa] | 0.684 ± 0.021 | 0.653 ± 0.018 |
| DLKKLIWNEIFS [FUS3 C-terminal 12 aa] | 0.707 ± 0.021 | 0.684 ± 0.027 |
| FKLKDEYLLIDD [SAS2 C-terminal 12 aa] | 0.69 ± 0.016 | 0.666 ± 0.031 |
| GFKGFSNKRVKG [MSS18 C-terminal 12 aa] | 0.689 ± 0.015 | 0.6964 ± 0.0036 |
| QRDFLLFYNAIM [CDC36 C-terminal 12 aa] | 0.687 ± 0.012 | 0.533 ± 0.075 |

| Sequence | protein stability index [1] | protein stability index (genetic background: wild type) |
| --- | --- | --- |
| CYQDYNHDHRSH [OSW2 C-terminal 12 aa] | 0.7147 ± 0.0055 | 0.6835 ± 0.0018 |
| FAKLAAIPCSNA [YMR265C C-terminal 12 aa] | 0.553 ± 0.0059 | 0.5659 ± 0.0046 |
| SQTKSKQTLFTI [YPR142C C-terminal 12 aa] | 0.722 ± 0.021 | 0.695 ± 0.038 |
| ESRLFISDGAVF [MON1 C-terminal 12 aa] | 0.696 ± 0.0082 | 0.713 ± 0.041 |
| NVTKLAKERVLF [CPA1 C-terminal 12 aa] | 0.6847 ± 0.0048 | 0.703 ± 0.055 |
| VLFLEDNGFFVF [MET3 C-terminal 12 aa] | 0.765 ± 0.024 | 0.775 ± 0.037 |
| LSVHPLKPCDPN [INP52 C-terminal 12 aa] | 0.684 ± 0.0054 | 0.661 ± 0.042 |
| RNSPSYTGDHKT [YOR072W-A C-terminal 12 aa] | 0.722 ± 0.02 | 0.6928 ± 0.0067 |
| LLTAMSAQISFD [AAD16 C-terminal 12 aa] | 0.735 ± 0.00072 | 0.72 ± 0.012 |
| SDDDDYDEVANQ [UBC8 C-terminal 12 aa] | 0.689 ± 0.031 | 0.664 ± 0.015 |
| RVSRMRAKRKYQ [YOR300W C-terminal 12 aa] | 0.712 ± 0.034 | 0.6764 ± 0.0037 |
| FYNIHDERIREQ [YKL162C-A C-terminal 12 aa] | 0.746 ± 0.013 | 0.657 ± 0.078 |
| LSDASYDTYELV [SPG5 C-terminal 12 aa] | 0.703 ± 0.011 | 0.743 ± 0.01 |
| SLIDAKTGLPKE [MVD1 C-terminal 12 aa] | 0.6964 ± 0.004 | 0.706 ± 0.042 |
| DILSQIIESCWV [YNL174W C-terminal 12 aa] | 0.654 ± 0.0069 | 0.705 ± 0.083 |
| SRGQNTHPSVDK [ESC1 C-terminal 12 aa] | 0.699 ± 0.012 | 0.692 ± 0.029 |
| GSLLLYLLLKIL [INP54 C-terminal 12 aa] | 0.34 ± 0.018 | 0.119 ± 0.0017 |
| IAEIASAVDKYS [MHT1 C-terminal 12 aa] | 0.7183 ± 0.0018 | 0.726 ± 0.047 |
| GFRLRFWKSLGF [CYT2 C-terminal 12 aa] | 0.706 ± 0.029 | 0.716 ± 0.023 |

From the supplement of paper PMC10724198
